# Assay results reported in patent US10920254B2, “Methods and materials for producing 5 and 7-carbon monomers” (INVISTA North America S.á.r.l., priority 2015, dated 2021).
# B1: SEQ ID NO: 3: Mycobacterium smegmatis carboxylate reductase, N-terminal HIS tagged (protein, listed as Mycobacterium smegmatis)
# chain: MTSDVHDATDGVTETALDDEQSTRRIAELYATDPEFAAAAPLPAVVDAAHKPGLRLAEILQTLFTGYGDRPALGYRARELATDEGGRTVTRLLPRFDTLTYAQVWSRVQAVAAALRHNFAQPIYPGDAVATIGFASPDYLTLDLVCAYLGLVSVPLQHNAPVSRLAPILAEVEPRILTVSAEYLDLAVESVRDVNSVSQLVVFDHHPEVDDHRDALARAREQLAGKGIAVTTLDAIADEGAGLPAEPIYTADHDQRLAMILYTSGSTGAPKGAMYTEAMVARLWTMSFITGDPTPVINVNFMPLNHLGGRIPISTAVQNGGTSYFVPESDMSTLFEDLALVRPTELGLVPRVADMLYQHHLATVDRLVTQGADELTAEKQAGAELREQVLGGRVITGFVSTAPLAAEMRAFLDITLGAHIVDGYGLTETGAVTRDGVIVRPPVIDYKLIDVPELGYFSTDKPYPRGELLVRSQTLTPGYYKRPEVTASVFDRDGYYHTGDVMAETAPDHLVYVDRRNNVLKLAQGEFVAVANLEAVFSGAALVRQIFVYGNSERSFLLAVVVPTPEALEQYDPAALKAALADSLQRTARDAELQSYEVPADFIVETEPFSAANGLLSGVGKLLRPNLKDRYGQRLEQMYADIAATQANQLRELRRAAATQPVIDTLTQAAATILGTGSEVASDAHFTDLGGDSLSALTLSNLLSDFFGFEVPVGTIVNPATNLAQLAQHIEAQRTAGDRRPSFTTVHGADATEIRASELTLDKFIDAETLRAAPGLPKVTTEPRTVLLSGANGWLGRFLTLQWLERLAPVGGTLITIVRGRDDAAARARLTQAYDTDPELSRRFAELADRHLRVVAGDIGDPNLGLTPEIWHRLAAEVDLVVHPAALVNHVLPYRQLFGPNVVGTAEVIKLALTERIKPVTYLSTVSVAMGIPDFEEDGDIRTVSPVRPLDGGYANGYGNSKWAGEVLLREAHDLCGLPVATFRSDMILAHPRYRGQVNVPDMFTRLLLSLLITGVAPRSFYIGDGERPRAHYPGLTVDFVAEAVTTLGAQQREGYVSYDVMNPHDDGISLDVFVDWLIRAGHPIDRVDDYDDWVRRFETALTALPEKRRAQTVLPLLHAFRAPQAPLRGAPEPTEVFHAAVRTAKVGPGDIPHLDEALIDKYIRDLREFGLI
# modifications: N-terminal His tag
# notes: Mycobacterium smegmatis carboxylate reductase, N-terminal HIS tagged
# B2: SEQ ID NO: 9: Pseudomonas syringae ω-transaminase, N-terminal HIS tagged (protein, listed as Pseudomonas syringae)
# chain: MSANNPQTLEWQALSSEHHLAPFSDYKQLKEKGPRIITRAEGVYLWDSEGNKILDGMSGLWCVAIGYGREELADAASKQMRELPYYNLFFQTAHPPVLELAKAISDIAPEGMNHVFFTGSGSEGNDTMLRMVRHYWALKGQPNKKTIISRVNGYHGSTVAGASLGGMTYMHEQGDLPIPGVVHIPQPYWFGEGGDMTPDEFGIWAAEQLEKKILELGVENVGAFIAEPIQGAGGVIVPPDSYWPKIKEILSRYDILFAADEVICGFGRTSEWFGSDFYGLRPDMMTIAKGLTSGYVPMGGLIVRDEIVAVLNEGGDFNHGFTYSGHPVAAAVALENIRILREEKIVERVRSETAPYLQKRLRELSDHPLVGEVRGVGLLGAIELVKDKTTRERYTDKGAGMICRTFCFDNGLIMRAVGDTMIIAPPLVISFAQIDELVEKARTCLDLTLAVLQG
# modifications: N-terminal His tag
# notes: Pseudomonas syringae ω-transaminase, N-terminal HIS tagged
# B3: SEQ ID NO: 5: Mycobacterium massiliense carboxylate reductase, N-terminal HIS tagged (protein, listed as Mycobacterium abscessus)
# chain: MTNETNPQQEQLSRRIESLRESDPQFRAAQPDPAVAEQVLRPGLHLSEAIAALMTGYAERPALGERARELVIDQDGRTTLRLLPRFDTTTYGELWSRTTSVAAAWHHDATHPVKAGDLVATLGFTSIDYTVLDLAIMILGGVAVPLQTSAPASQWTTILAEAEPNTLAVSIELIGAAMESVRATPSIKQVVVFDYTPEVDDQREAFEAASTQLAGTGIALETLDAVIARGAALPAAPLYAPSAGDDPLALLIYTSGSTGAPKGAMHSENIVRRWWIREDVMAGTENLPMIGLNFMPMSHIMGRGTLTSTLSTGGTGYFAASSDMSTLFEDMELIRPTALALVPRVCDMVFQRFQTEVDRRLASGDTASAEAVAAEVKADIRDNLFGGRVSAVMVGSAPLSEELGEFIESCFELNLTDGYGSTEAGMVFRDGIVQRPPVIDYKLVDVPELGYFSTDKPHPRGELLLKTDGMFLGYYKRPEVTASVFDADGFYMTGDIVAELAHDNIEIIDRRNNVLKLSQGEFVAVATLEAEYANSPVVHQIYVYGSSERSYLLAVVVPTPEAVAAAKGDAAALKTTIADSLQDIAKEIQLQSYEVPRDFIIEPQPFTQGNGLLTGIAKLARPNLKAHYGPRLEQMYAEIAEQQAAELRALHGVDPDKPALETVLKAAQALLGVSSAELAADAHFTDLGGDSLSALSFSDLLRDIFAVEVPVGVIVSAANDLGGVAKFVDEQRHSGGTRPTAETVHGAGHTEIRAADLTLDKFIDEATLHAAPSLPKAAGIPHTVLLTGSNGYLGHYLALEWLERLDKTDGKLIVIVRGKNAEAAYGRLEEAFDTGDTELLAHFRSLADKHLEVLAGDIGDPNLGLDADTWQRLADTVDVIVHPAALVNHVLPYNQLFGPNVVGTAEIIKLAITTKIKPVTYLSTVAVAAYVDPTTFDEESDIRLISAVRPIDDGYANGYGNAKWAGEVLLREAHDLCGLPVAVFRSDMILAHSRYTGQLNVPDQFTRLILSLIATGIAPGSFYQAQTTGERPLAHYDGLPGDFTAEAITTLGTQVPEGSEGFVTYDCVNPHADGISLDNFVDWLIEAGYPIARIDNYTEWFTRFDTAIRGLSEKQKQHSLLPLLHAFEQPSAAENHGVVPAKRFQHAVQAAGIGPVGQDGTTDIPHLSRRLIVKYAKDLEQLGLL
# modifications: N-terminal His tag; Mycobacterium abscessus subsp. bolletii
# notes: Mycobacterium massiliense carboxylate reductase, N-terminal HIS tagged
# Tests used:
# Format in all cases: biochemical
# [1] = carboxylate reductase enzyme activity assay (N7-acetyl-7-aminoheptanoate to N7-acetyl-7-aminoheptanal), NADPH consumption at 340 nm; settings: purified enzyme enhanced by gene product of sfp; 2 mM N7-acetyl-7-aminoheptanoate, 1 mM ATP, 1 mM NADPH, pH 7.5, room temperature, 20 min; FIG. 10
# Experimental: The activity of each of the N-terminal His-tagged carboxylate reductases of SEQ ID NOs: 3, 5, and 6 (see Examples 2 and 3, and FIG. 6B, FIGS. 6D-6E) for converting N7-acetyl-7-aminoheptanoate to N7-acetyl-7-aminoheptanal was assayed in triplicate in a buffer composed of a final concentration of 50 mM HEPES buffer (pH=7.5), 2 mM N7-acetyl-7-aminoheptanoate, 10 mM MgCl2, 1 mM ATP, and 1 mM NADPH. The assays were initiated by adding purified carboxylate reductase and phosphopantetheine transferase or the empty vector control to the assay buffer containing the N7-acetyl-7-aminoheptanoate then incubated at room temperature for 20 min. The consumption of NADPH was monitored by absorbance at 340 nm.
# [2] = ω-transaminase enzyme activity assay, forward direction (pimelate semialdehyde to 7-aminoheptanoate), pyruvate formation by RP-HPLC
# Experimental: (§1) A nucleotide sequence encoding an N-terminal His-tag was added to the nucleic acid sequences from Chromobacterium violaceum, Pseudomonas syringae, Rhodobacter sphaeroides, and Vibrio fluvialis encoding the ω-transaminases of SEQ ID NOs: 7, 9, 10, and 12, respectively (see FIGS. 6E-6F) such that N-terminal HIS tagged ω-transaminases could be produced. Each of the resulting modified genes was cloned into a pET21a expression vector under control of the T7 promoter and each expression vector was transformed into a BL21[DE3] E. coli host. The resulting recombinant E. coli strains were cultivated at 37° C. in a 250 mL shake flask culture containing 50 mL LB media and antibiotic selection pressure, with shaking at 230 rpm. Each culture was induced overnight at 16° C. using 1 mM IPTG.
# (§2) The pellet from each induced shake flask culture was harvested via centrifugation. Each pellet was resuspended and lysed via sonication. The cell debris was separated from the supernatant via centrifugation and the cell free extract was used immediately in enzyme activity assays.
# Enzyme activity in the forward direction (i.e., pimelate semialdehyde to 7-aminoheptanoate) was confirmed for the transaminases of SEQ ID NO: 9, SEQ ID NO: 10, and SEQ ID NO: 12. Enzyme activity assays were performed in a buffer composed of a final concentration of 50 mM HEPES buffer (pH=7.5), 10 mM pimelate semialdehyde, 10 mM L-alanine, and 100 μM pyridoxyl 5′ phosphate. Each enzyme activity assay reaction was initiated by adding a cell free extract of the ω-transaminase gene product or the empty vector control to the assay buffer containing the pimelate semialdehyde and incubated at 25° C. for 4 h, with shaking at 250 rpm. The formation of pyruvate was quantified via RP-HPLC.
# [3] = ω-transaminase enzyme activity assay, reverse direction (7-aminoheptanoate to pimelate semialdehyde), L-alanine formation by RP-HPLC; settings: cell free extract; 10 mM 7-aminoheptanoate, 10 mM pyruvate, pH 7.5, 25° C., 4 h; FIG. 13
# Experimental: as §1, §2
# Enzyme activity assays in the reverse direction (i.e., 7-aminoheptanoate to pimelate semialdehyde) were performed in a buffer composed of a final concentration of 50 mM HEPES buffer (pH=7.5), 10 mM 7-aminoheptanoate, 10 mM pyruvate, and 100 μM pyridoxyl 5′ phosphate. Each enzyme activity assay reaction was initiated by adding cell free extract of the ω-transaminase gene product or the empty vector control to the assay buffer containing the 7-aminoheptanoate and incubated at 25° C. for 4 h, with shaking at 250 rpm. The formation of L-alanine from pyruvate was quantified via RP-HPLC.
# [4] = ω-transaminase enzyme activity assay (7-aminoheptanol to 7-oxoheptanol), L-alanine formation by RP-HPLC
# Experimental: A nucleotide sequence encoding an N-terminal His-tag was added to the Chromobacterium violaceum, Pseudomonas syringae, and Rhodobacter sphaeroides nucleic acids encoding the ω-transaminases of SEQ ID NOs: 7, 9 and 10, respectively (see FIGS. 6E-6F), such that N-terminal HIS tagged ω-transaminases could be produced. The modified genes were cloned into a pET21a expression vector under the T7 promoter. Each expression vector was transformed into a BL21[DE3] E. coli host. Each resulting recombinant E. coli strain was cultivated at 37° C. in a 250 mL shake flask culture containing 50 mL LB media and antibiotic selection pressure, with shaking at 230 rpm. Each culture was induced overnight at 16° C. using 1 mM IPTG.
# as §2
# Enzyme activity assays in the reverse direction (i.e., 7-aminoheptanol to 7-oxoheptanol) were performed in a buffer composed of a final concentration of 50 mM HEPES buffer (pH=7.5), 10 mM 7-aminoheptanol, 10 mM pyruvate, and 100 μM pyridoxyl 5′ phosphate. Each enzyme activity assay reaction was initiated by adding cell free extract of the ω-transaminase gene product or the empty vector control to the assay buffer containing the 7-aminoheptanol and then incubated at 25° C. for 4 h, with shaking at 250 rpm. The formation of L-alanine was quantified via RP-HPLC.
Molecule,"acceptance of N7-acetyl-7-aminoheptanoate as substrate (NADPH consumption), confirmed against the empty vector control [1]","acceptance of pimelate semialdehyde as substrate (conversion of L-alanine to pyruvate), confirmed against the empty vector control ([2]; cell free extract, 10 mM pimelate semialdehyde, 10 mM L-alanine, pH 7.5, 25° C., 4 h, FIG. 14)","reversibility of the ω-transaminase activity: pimelate semialdehyde accepted, 7-aminoheptanoate synthesized ([2]; conclusion from forward and reverse direction assays of Example 1)","acceptance of 7-aminoheptanoate as substrate (conversion of pyruvate to L-alanine), confirmed against the empty vector control [3]","acceptance of 7-aminoheptanol as substrate (conversion of pyruvate to L-alanine), confirmed against the empty vector control ([4]; cell free extract, 10 mM 7-aminoheptanol, 10 mM pyruvate, pH 7.5, 25° C., 4 h, FIG. 17)",acceptance of 7-oxoheptanol as substrate forming 7-aminoheptanol ([4]; concluded from the reversibility of the ω-transaminase activity (Example 1))
B1,accepted N7-acetyl-7-aminoheptanoate as substrate,–,–,–,–,–
B2,–,accepted pimelate semialdehyde as substrate,accepted pimelate semialdehyde as substrate and synthesized 7-aminoheptanoate as a reaction product,accepted 7-aminoheptanote as substrate,accepted 7-aminoheptanol as substrate,accept 7-oxoheptanol as substrate and form 7-aminoheptanol
B3,accepted N7-acetyl-7-aminoheptanoate as substrate,–,–,–,–,–
